Laboratory results from paper PMC5970223, “Multiplexed profiling of GPCR activities by combining split TEV assays and EXT-based barcoded readouts” (Scientific Reports, 2018).
Where a name gives a salt, the structure may show the parent alone.

How the values were obtained:
[1] = tested on: dopamine and the adrenergic receptors; conditions: U2OS cells, agonist 100 pM to 100 µM
Experimental: (§1) Two hours after transfection, all cell populations were pooled, mixed, and evenly divided into fractions for plating onto assay dishes (Fig. 2a). The cells were cultured and stimulated under identical conditions for agonist or antagonist assays as initially described for GPCR split TEV assays (Supplementary Fig. S1a,b).
(§2) After cell lysis, RNA from each sample was isolated and converted into cDNA by reverse transcription. […] This permits the mixing of all samples and sequencing of all pooled samples using a single sequencing run (Fig. 2b). The sample barcodes enable tracing experimental conditions, whereas the read counts per EXTs serve as quantitative measurements for the corresponding GPCRs. […] From the normalized data the fold changes of receptor activities were finally calculated.
(§3) In addition to the stimulation with the single compounds, a compound-mixture (mix) of all agonists was tested. The first set of experiments were carried out in the human osteosarcoma cell line U2OS. We normalized the raw sequencing data to total read numbers of sample codes, followed by averaging reads of internal and external calibrator EXTs as described above (Supplementary Fig. S4).
(§4) Cells were resuspended in culture medium without antibiotics at a density of 1.5 × 10^6 cells/ml (U2OS) or 3 × 10^6 cells/ml (PC12). […] Transfection-mixes were added to cell suspensions and incubated for 2 h at 37 °C without shaking. Suspensions were centrifuged for 5 min at 900 rpm and resuspended in culture medium to remove transfection reagents. All transfection samples were combined within one pool and plated on multiple wells of 6-well plates and incubated for 24 h at 37 °C. Afterwards, cells were starved for 17–18 h and then treated with compounds for 6 h in duplicates. After compound treatment cells were washed with PBS and 500 µl RLT lysis buffer was applied for cell lysis. Lysates were processed for sequencing as described below.
RNA was additional in solution treated with Turbo DNase (Ambion) for 30 min at 37 °C and repurified over an RNeasy column. […]

[2] = tested on: T1, somatostatin receptor SSTR3; assay: multiplexed GPCRprofiler assay in U2OS cells; type: cell-based, human; conditions: agonist 100 pM to 100 µM
T1 construct: ORFs of GPCRs were PCR amplified; expressed in transfected cells; host or cells: U2OS
Experimental: as §1, §2, §3, §4
(§5) RNA was additional in solution treated with Turbo DNase (Ambion) for 30 min at 37 °C and repurified over an RNeasy column. First-strand cDNA synthesis was performed with 1 µg total RNA using superscript III reverse transcriptase (Invitrogen) and 120 pmol of a random nanomer primer. […] On order to differentiate different samples 13mer barcodes were introduced between 5′ Ion adapter and target sequence. All processed samples of an experiment were combined within one pool and purified using PCR clean-up kit (Macherey-Nagel).
(§6) Raw sequencing data analyses were done by using BLAST algorithm and in-house developed R scripts.

[3] = tested on: T2, somatostatin receptor SSTR1; assay: multiplexed GPCRprofiler assay in U2OS cells; type: cell-based, human; conditions: agonist 100 pM to 100 µM
T2 construct: ORFs of GPCRs were PCR amplified; expressed in transfected cells; host or cells: U2OS
Experimental: as §1, §2, §3, §4, §5, §6

[4] = tested on: T3, somatostatin receptor SSTR2; assay: multiplexed GPCRprofiler assay in U2OS cells; type: cell-based, human; conditions: agonist 100 pM to 100 µM
T3 construct: ORFs of GPCRs were PCR amplified; expressed in transfected cells; host or cells: U2OS
Experimental: as §1, §2, §3, §4, §5, §6

[5] = tested on: T4, Vasopressin receptor AVPR2; assay: multiplexed GPCRprofiler assay in U2OS cells; type: cell-based, human; conditions: agonist 100 pM to 100 µM
T4 construct: ORFs of GPCRs were PCR amplified; expressed in transfected cells; host or cells: U2OS
Experimental: as §1, §2, §3, §4, §5, §6

[6] = tested on: T5, Vasopressin receptor AVPR1A; assay: multiplexed GPCRprofiler assay in U2OS cells; type: cell-based, human; conditions: agonist 100 pM to 100 µM
T5 construct: ORFs of GPCRs were PCR amplified; expressed in transfected cells; host or cells: U2OS
Experimental: as §1, §2, §3, §4, §5, §6

[7] = target: DRD2-V2R-NTEV-tevS-GV (human) (UniProt P14416); assay: split reporter (BiFC, NanoBiT); multiplexed GPCRprofiler: split TEV with EXT barcode read-out, U2OS cells transiently transfected with GPCR-V2R-NTEV-tevS-GV and β-arrestin2delta-CTEV, pooled; serotonin, dopamine, epinephrine, vasopressin, somatostatin or their mix, 100 pM to 100 µM, 6 h; also with paliperidone or aripiprazole alone or with an agonist mix (1 µM each, with histamine); fold change over unstimulated
Sequence of DRD2-V2R-NTEV-tevS-GV (human) (P14416 whole entry): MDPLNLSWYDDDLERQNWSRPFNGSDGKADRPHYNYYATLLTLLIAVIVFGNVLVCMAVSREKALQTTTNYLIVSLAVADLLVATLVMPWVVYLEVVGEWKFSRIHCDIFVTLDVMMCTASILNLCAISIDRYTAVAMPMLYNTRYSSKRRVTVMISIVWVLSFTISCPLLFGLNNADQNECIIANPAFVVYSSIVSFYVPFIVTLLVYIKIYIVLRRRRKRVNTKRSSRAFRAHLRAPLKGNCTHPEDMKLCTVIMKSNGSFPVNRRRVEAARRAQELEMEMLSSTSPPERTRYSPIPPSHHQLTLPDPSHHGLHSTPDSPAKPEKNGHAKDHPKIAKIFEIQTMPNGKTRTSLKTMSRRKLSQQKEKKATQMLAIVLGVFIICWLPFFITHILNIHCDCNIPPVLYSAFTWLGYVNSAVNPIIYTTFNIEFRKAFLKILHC

[8] = target: SSTR1-V2R-NTEV-tevS-GV (human) (UniProt P30872); assay: as above
Sequence of SSTR1-V2R-NTEV-tevS-GV (human) (P30872 whole entry): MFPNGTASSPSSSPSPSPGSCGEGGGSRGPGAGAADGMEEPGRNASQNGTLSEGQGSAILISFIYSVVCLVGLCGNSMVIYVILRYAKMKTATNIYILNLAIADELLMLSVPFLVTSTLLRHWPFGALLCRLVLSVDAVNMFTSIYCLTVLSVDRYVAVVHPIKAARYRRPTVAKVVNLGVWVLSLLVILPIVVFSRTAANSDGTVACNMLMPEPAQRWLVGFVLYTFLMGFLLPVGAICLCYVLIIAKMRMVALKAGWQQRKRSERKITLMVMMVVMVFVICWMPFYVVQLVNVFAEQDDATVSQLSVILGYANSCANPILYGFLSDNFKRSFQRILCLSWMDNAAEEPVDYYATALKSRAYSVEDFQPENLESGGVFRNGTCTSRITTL

[9] = target: DRD3-V2R-NTEV-tevS-GV (human) (UniProt P35462); assay: as above
Sequence of DRD3-V2R-NTEV-tevS-GV (human) (P35462 whole entry): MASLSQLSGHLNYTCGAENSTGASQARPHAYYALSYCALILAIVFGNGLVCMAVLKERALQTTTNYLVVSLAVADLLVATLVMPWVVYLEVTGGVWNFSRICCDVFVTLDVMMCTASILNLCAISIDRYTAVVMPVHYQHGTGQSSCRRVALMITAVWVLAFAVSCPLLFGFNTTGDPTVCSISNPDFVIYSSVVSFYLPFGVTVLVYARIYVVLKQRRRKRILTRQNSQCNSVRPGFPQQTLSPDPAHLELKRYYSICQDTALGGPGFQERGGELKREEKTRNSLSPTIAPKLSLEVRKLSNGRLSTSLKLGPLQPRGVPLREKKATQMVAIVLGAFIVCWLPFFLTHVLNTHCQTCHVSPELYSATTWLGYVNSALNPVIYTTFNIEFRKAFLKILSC

[10] = target: ADRA2B-V2R-NTEV-tevS-GV (human) (UniProt P18089); assay: as above
Sequence of ADRA2B-V2R-NTEV-tevS-GV (human) (P18089 whole entry): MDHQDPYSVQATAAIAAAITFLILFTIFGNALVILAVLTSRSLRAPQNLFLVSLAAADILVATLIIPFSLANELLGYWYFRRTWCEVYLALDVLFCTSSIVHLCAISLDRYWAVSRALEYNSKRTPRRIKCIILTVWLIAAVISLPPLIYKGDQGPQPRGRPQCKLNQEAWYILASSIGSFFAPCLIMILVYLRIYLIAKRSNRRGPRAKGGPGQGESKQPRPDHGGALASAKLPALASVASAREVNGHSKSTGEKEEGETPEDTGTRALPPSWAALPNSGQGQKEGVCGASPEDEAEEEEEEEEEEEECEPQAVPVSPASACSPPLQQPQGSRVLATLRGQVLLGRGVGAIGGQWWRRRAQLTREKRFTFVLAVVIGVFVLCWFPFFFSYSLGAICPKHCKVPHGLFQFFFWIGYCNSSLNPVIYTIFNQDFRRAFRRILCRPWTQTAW

[11] = target: ADRA2C-V2R-NTEV-tevS-GV (human) (UniProt P18825); assay: as above
Sequence of ADRA2C-V2R-NTEV-tevS-GV (human) (P18825 whole entry): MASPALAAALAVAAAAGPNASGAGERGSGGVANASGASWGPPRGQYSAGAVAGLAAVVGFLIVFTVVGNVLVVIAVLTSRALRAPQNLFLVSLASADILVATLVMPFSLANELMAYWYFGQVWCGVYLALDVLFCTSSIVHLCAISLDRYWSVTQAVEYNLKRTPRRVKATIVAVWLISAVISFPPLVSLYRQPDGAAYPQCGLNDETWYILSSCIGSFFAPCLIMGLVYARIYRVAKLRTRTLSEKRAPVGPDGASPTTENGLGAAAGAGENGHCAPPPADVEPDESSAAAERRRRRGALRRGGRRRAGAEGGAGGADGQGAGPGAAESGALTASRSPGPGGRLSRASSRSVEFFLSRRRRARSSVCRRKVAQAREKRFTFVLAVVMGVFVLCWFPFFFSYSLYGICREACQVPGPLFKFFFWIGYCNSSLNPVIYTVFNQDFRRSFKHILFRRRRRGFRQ

[12] = target: SSTR2 and SSTR3; assay: as above
[13] = target: DRD1-V2R-NTEV-tevS-GV (human) (UniProt P21728); assay: as above
[14] = target: AVPR1A-V2R-NTEV-tevS-GV (human) (UniProt P37288); assay: split reporter (BiFC, NanoBiT); multiplexed GPCRprofiler: split TEV with EXT barcode read-out, identical experiment in PC12 cells (Supplementary Fig. S5)
Sequence of AVPR1A-V2R-NTEV-tevS-GV (human) (P37288 whole entry): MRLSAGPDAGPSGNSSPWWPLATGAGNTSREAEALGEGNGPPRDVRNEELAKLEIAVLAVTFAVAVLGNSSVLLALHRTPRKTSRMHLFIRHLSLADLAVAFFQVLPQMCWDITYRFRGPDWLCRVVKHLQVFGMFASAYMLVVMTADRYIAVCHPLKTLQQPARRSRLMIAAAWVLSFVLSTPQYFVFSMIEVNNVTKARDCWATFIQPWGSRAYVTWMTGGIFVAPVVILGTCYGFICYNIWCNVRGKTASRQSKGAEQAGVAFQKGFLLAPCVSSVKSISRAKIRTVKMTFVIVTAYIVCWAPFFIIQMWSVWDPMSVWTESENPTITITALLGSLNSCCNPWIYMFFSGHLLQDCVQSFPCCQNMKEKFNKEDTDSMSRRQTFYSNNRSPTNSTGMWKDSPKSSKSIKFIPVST

[15] = target: ADRA1A-V2R-NTEV-tevS-GV (human) (UniProt P35348); assay: as above
Sequence of ADRA1A-V2R-NTEV-tevS-GV (human) (P35348 whole entry): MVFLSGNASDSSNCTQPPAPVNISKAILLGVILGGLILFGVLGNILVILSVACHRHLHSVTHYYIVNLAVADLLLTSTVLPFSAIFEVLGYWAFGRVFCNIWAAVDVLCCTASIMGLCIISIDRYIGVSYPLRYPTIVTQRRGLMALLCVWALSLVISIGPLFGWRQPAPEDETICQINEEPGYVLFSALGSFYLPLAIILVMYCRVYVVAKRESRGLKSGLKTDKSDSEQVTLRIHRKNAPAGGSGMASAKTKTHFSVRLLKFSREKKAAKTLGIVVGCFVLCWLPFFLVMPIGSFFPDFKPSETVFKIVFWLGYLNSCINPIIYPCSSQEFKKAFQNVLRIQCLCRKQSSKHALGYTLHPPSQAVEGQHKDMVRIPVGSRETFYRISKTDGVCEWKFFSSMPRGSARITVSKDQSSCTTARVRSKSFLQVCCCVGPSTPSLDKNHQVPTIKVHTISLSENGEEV

[16] = target: HTR2A-V2R-NTEV-tevS-GV (human) (UniProt P28223); assay: as above

Sequence of β-arrestin2delta-CTEV (P32121 1-383, stated change not applied): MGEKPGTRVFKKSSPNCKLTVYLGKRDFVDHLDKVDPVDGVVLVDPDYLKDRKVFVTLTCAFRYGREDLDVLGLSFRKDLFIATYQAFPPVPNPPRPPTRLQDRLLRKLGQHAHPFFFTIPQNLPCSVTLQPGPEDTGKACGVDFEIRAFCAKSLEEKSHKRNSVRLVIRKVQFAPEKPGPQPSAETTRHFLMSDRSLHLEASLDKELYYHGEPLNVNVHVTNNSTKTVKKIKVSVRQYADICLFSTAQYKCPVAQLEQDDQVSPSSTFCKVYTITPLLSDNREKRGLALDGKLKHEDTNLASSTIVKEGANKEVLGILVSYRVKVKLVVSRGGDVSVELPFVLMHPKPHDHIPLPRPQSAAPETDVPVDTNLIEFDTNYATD

With CNC[C@H](O)c1ccc(O)c(O)c1 [Epinephrine, Epinephrine hydrochloride] the “signals of both receptor subfamilies (dopamine and adrenergic) upon stimulation” value [1] was “elevated signals”.

In the case of Somatostatin, the “induction rate (up to)” value [2] is reported as 9–10 fold, the “induction rate (up to)” value [3] is reported as “up to 4 fold” and the “induction rate (up to)” value [4] is reported as 9–10 fold.

[Arg8]-Vasopressin acetate salt was tested, and the “receptor induction by agonist” value [5] was “induced” and the “receptor induction by agonist” value [6] was “induced”.

“β-arrestin2delta-CTEV (from UniProt P32121 1-383) (domain or fragment)” gave a fold change of receptor activation (split TEV signal) over unstimulated, at 10 µM serotonin [7] of 5 fold, a fold change of receptor activation (split TEV signal) over unstimulated [8] of 4 fold and a fold change of receptor activation (split TEV signal) over unstimulated [9] of 2 fold. For the same compound, the fold change of receptor activation (split TEV signal) over unstimulated [10] was 10 fold, the fold change of receptor activation (split TEV signal) over unstimulated [11] was 13 fold and the fold change of receptor activation (split TEV signal) over unstimulated [12] was 9 to 10 fold. It also gave a fold change of receptor activation (split TEV signal) over unstimulated [13] of 2 fold, a fold activation (split TEV signal) [14] of 44.3 fold and a fold activation (split TEV signal) [15] of 314 fold. For the same compound, the fold activation (split TEV signal) [16] was 89.5 fold.
